According to patent US20250179196A1 (Janssen / Centocor, published 2025):

T1: human IL-23R expressed on the cell surface of stably transfected iLite and HEK cell lines (human, UniProt Q5VWK5 24-629)
T1 construct: whole, on cells; Same receptor on two transfected cell lines; the cell line is named under assay; also called human IL-23R iLite cells; human IL-23R HEK cells
T1 sequence (looked up): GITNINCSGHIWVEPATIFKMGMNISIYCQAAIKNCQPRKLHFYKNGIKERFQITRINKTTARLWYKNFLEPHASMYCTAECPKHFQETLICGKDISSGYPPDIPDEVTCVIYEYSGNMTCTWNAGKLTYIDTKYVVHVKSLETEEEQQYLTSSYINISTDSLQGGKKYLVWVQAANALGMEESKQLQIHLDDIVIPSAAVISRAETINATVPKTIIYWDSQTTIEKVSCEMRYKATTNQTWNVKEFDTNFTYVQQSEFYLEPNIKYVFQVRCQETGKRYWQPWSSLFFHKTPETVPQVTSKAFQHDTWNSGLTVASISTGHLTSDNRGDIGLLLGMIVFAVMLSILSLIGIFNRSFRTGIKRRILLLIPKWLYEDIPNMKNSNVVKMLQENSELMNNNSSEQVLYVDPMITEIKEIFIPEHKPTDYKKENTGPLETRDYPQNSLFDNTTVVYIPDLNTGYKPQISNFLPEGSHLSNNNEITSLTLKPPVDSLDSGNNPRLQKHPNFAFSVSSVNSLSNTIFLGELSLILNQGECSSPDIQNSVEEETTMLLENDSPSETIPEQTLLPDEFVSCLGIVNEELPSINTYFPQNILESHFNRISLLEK


Key:
[1] = target: T1, human IL-23R expressed on the cell …; experiment: flow cytometry on human IL-23R HEK cells, Expt E (11-point, 384well)
Method: HEK-IL-23R cell concentration response mAb binding (11-point, 384-well assay). […] IL-23R mAbs were allowed to bind to cells for 30 minutes, at 37° C. […] Cells were next washed twice in ice-cold stain buffer, then resuspended in a final volume of 10 μL with Sytox Green viability dye (ThermoFisher, Cat #S7020). Plates were kept on ice until run for analysis on the iQue. All washes were performed by centrifugation (800 rcf, 3 minutes) followed by automated aspiration to remove supernatants with plate washers. Cell-binding to HEK-IL-23R cells was measured with FlowJo, by gating for single, viable cells and determining the geometric mean fluorescence intensity (MFI) for the 647 detection antibody. Geometric mean fluorescence intensities were plotted over log mAb concentrations fitted with a dose response curve with variable slope using GraphPad Prism.

[2] = target: T1, human IL-23R expressed on the cell …; experiment: flow cytometry on human IL-23R HEK cells, Expt D (8-point, 96well)
Method: HEK-IL-23R cell concentration response mAb binding (8-point, 96-well assay). […] HEK-IL-23R and HEK-parental cells (12.5 μL of each, 120000 cells total) were plated in 2× replicate on 96-well V-bottom plates (Corning, Cat #3357) into 37° C. warmed Assay medium containing serially diluted IL-23R mAbs to a final volume of 150 μL. IL-23R mAbs were allowed to bind to cells for 30 minutes, at 37° C. […] Cells were next washed twice in ice-cold stain buffer, then resuspended in a final volume of 30 μL with Sytox Green viability dye (ThermoFisher, Cat #S7020). Plates were kept on ice until run for analysis on the iQue. All washes were performed by centrifugation (800 rcf, 3 minutes) followed by flick decantation to remove supernatants. Cell-binding to HEK-IL-23R cells was measured with FlowJo, by gating for single, viable cells and determining the geometric mean fluorescence intensity (MFI) for the 647 detection antibody. Geometric mean fluorescence intensities were plotted over log mAb concentrations fitted with a dose response curve with variable slope using GraphPad Prism.

| Binder | EC50 [1] [nM] | MFI (6.4 nM) [1] [MFI] | EC50 [2] [nM] |
| --- | --- | --- | --- |
| I23RB98 (antibody, mouse IgG2a, kappa, V domains shown, immunization; mouse IgG2a/kappa) VH: EFQLQQSGPELVKPGASVKMSCKASGYTFTNYYMHWVKQSHGKTIEWIGYIYPNSGDTSYNQKFKGKATLTVDKSSSTAYMELRSLTSEDSAVYTCARFGGFYDAMDYWGQGTTVTVSS VL: DIVLTQSPAIMSASLGERVTMTCTASSSVSSSYLHWYQQKPGSSPKLWIYSTSNLASGVPARFSGSGSGTSYSLTISSMEAEDAATYYCHQYHRSPFTFGSGTKLEMKR | 28.7 | 59400 | 1.9 |
| I23RB57 (antibody, mouse IgG2a, kappa, V domains shown, immunization; mouse IgG2a/kappa) VH: EFQLQQSGPELVKPGASVKMSCKASGYTFTNYYMHWVKQSHGKTIEWIGYIYPNSGDTSYNQKFKGKATLTVDKSSSTAYMELRSLTSEDSAVYNCARFGGFYDAMDYWGQGTSVTVSS VL: DIVMTQSPAIMSASLGERVTMTCTASSSVSSSYLHWYQQKPGSSPKLWIYSTSNLASGVPARFSGSGSGTSYSLTISSMEAEDAATYYCHQYHRSPFTFGSGTKLEIKR | > 50 | 99600 | 5 |
| I23RB92 (antibody, mouse IgG2a, kappa, V domains shown, immunization; mouse IgG2a/kappa) VH: EVQLQQSGPEVVKPGASVKISCKASGYTFTDHTMDWVKQSHGKNLEWIGYIYPKSGGTGYNQKFKNKATLTVDKSSSTAYMEFHSLTSDDSAVYYCARWGLRRDGFVYWGQGTLVTVSA VL: DIKMTQSPASLAVSLGQRATISCRASQSVSTSKYDYIHWYQQKSGQPPRLLIKYASNLESGVPARFSGSGSGTDFTLNIHPVEEEDTATYYCQHTWEIPYTFGSGTKLELKR | 4 | 376000 | 0.2 |
| I23RB65 (antibody, mouse IgG2a, kappa, V domains shown, immunization; mouse IgG2a/kappa) VH: EVQLQQSGPELVKPGASVKISCKASGYTFTDHTMDWVKQSHGKSLEWIGYIYPKSGNAAYSQKFKSEATLTVDKSSSTAYMEFHSLTSEDSAVYYCARWGLRRDGFTYWGQGTSVTVSS VL: QIVLTQSPASLAVSLGQRATISCRASQSVSTSSYNYIHWYQQKPGQPPKLLIKYASNLESGVPARFSGSGSGTDFTLNIHPVEEDDTATYYCQHTWEIPYTFGSGTKLEIKR | 4 | 275000 | 0.3 |
| I23RB259 (antibody, mouse IgG2a, kappa, V domains shown, phage display; human V, mouse IgG2a/kappa) VH: QVQLVQSGAEVKKPGSSVKVSCKASGGTFSSYGISWVRQAPGQGLEWMGWISPIFGTTNYAQKFQGRVTITADESTSTAYMELSSLRSEDTAVYYCARMMMQSLDYWGQGTLVTVSS VL: not shown | > 50 | 30900 | 29.7 |
| I23RB76 (antibody, mouse IgG2a, kappa, V domains shown, immunization; mouse IgG2a/kappa) VH: EVQLQQSGPELVKPGASVKMSCKASGYTFTDYYMNWMKQSHGKSLEWIGYISPKNGRTGYNQKFKGKATLTVDKSSTTAYMELRSLTSEDSAVYYCAKSNGYYALDYWGQGTTVTVSS VL: DIVLTQSPATLCVTPGETVSLSCRASQNIYKNLHWFQQKSHRSPRLLIKYASDSISGIPSRFTGSGSGTDYTLSINSVKPEDEGIYYCLQGYSTPWTFGGGTKLEIKR | 11.9 | 322000 | 0.4 |
| I23RB32 (antibody, mouse IgG2a, kappa, V domains shown, immunization; mouse IgG2a/kappa) VH: EFQLQQSGPELVKPGASVKLSCKASGYTFTDYALHWVKQSPGQGLEWIGWIYPGGGNTYYNDKFKGKATMTADKSSSTAYMQLSSLTSEDSAVYFCARGRLRRDYPMDYWGQGTSVTVSS VL: DIVMTQSPSSLTVTAGEKVTMSCKSSQSLLNSGNQKNYLTWYQQKPGQPPKLLIYWASTRESGVPDRFTGSGSGTDFTLTISSVQAEDLAVYYCQNDYTYPLTFGSGTKLEIKR | 5.1 | 292000 | 0.4 |
| I23RB159 (antibody, mouse IgG2a, kappa, V domains shown, immunization; mouse IgG2a/kappa) VH: EVQLQQSGGGLVKPGGSLKLSCAASGFTFSDYGMAWVRQTPRKGPEWIAFISNLAYSVYYSDTVTGRFTISRENAKNTLYLEMSSLRSEDTAMYYCARHGDYRNYGFAYWGLGTTVTVSS VL: DIVMTQTTSSLSASLGDRVTISCRASQDISNYLNWYQQKPDGTVKLLIYYTSRLHSGVPSRFSGSGSGTDYSLTISNLEQEDIATYFCQQGNTLPWTFGAGTKLELKR |  |  | > 50 |
| I23RB269 (antibody, mouse IgG2a, kappa, V domains shown, phage display; human V, mouse IgG2a/kappa) VH: QVQLVQSGAEVKKPGSSVKVSCKASGGTFSDASISWVRQAPGQGLEWMGTIIPISGNANYAQKFQGRVTITADESTSTAYMELSSLRSEDTAVYYCARDRYVWYYWDGYFDYWGQGTLVTVSS VL: not shown | 14.7 | 96800 | 0.6 |
| I23RB33 (antibody, mouse IgG2a, kappa, V domains shown, immunization; mouse IgG2a/kappa) VH: EVQLQQSGAELVKPGASVKLSCTASGFNIRDIYIHWVKQRPEQGLEWIGRIDPANGHSIYAAKFQGKATITADTSLNIAYMQLSSLTSGDTAVYYCARGSDNDYGRVLAYWGLGTSVTVSS VL: DIVLTQSPAIMSASPGEKVTMTCRASSSVRSSYLHWYQQKSGASPKLWIYSTSNLASGVPARFSGSGSGTSYSLTITSVEAEDAATYYCQQYTGNPIFTFGSGTKLELKR | 5.6 | 306000 | 0.2 |
| I23RB47 (antibody, mouse IgG2a, kappa, V domains shown, immunization; mouse IgG2a/kappa) VH: QVQLKESGPGLVAPSQSLSITCTVSGFSLTNYDIHWVRQSPGKGLEWLGVIWSDGRTDYKGAFISRLSISKDNSKSQVFFKMNSLQADDTAIYYCARNNYYRYGRNTMDYWGQGTSVTVSS VL: DIVLTQSPASQSASLGESVTITCLASQTIGSWLAWYQQKPGKSPQLLIYAATRLADGVPSRFSGSGSGTKFSFKISSLQAEDFVFYYCHQLYSIPLTFGGGTKLEMKR | 4.1 | 364000 | 0.2 |
| I23RB161 (antibody, mouse IgG2a, kappa, V domains shown, immunization; mouse IgG2a/kappa) VH: EFQLQQSGPELVKPGASVKISCKASVYAFSSSWMNWVKQRPGKGLEWIGRIYPGDGDTNYNGKFKGKATLTADKSSSTAYMQLSSLTSEDSAVYFCARRYDFGSAMDYWGQGTSVTVSS VL: DIVMTQSPAILSASPGEKVTMTCRASSSVSYMHWYQQKPGSSPKPWIYATSDLASGAPARFSGSGSGTSYSLTISRVEAEDAATYYCQQWSSNPPTFGGGTKLEIKR |  |  | 0.8 |
| I23RB268 (antibody, mouse IgG2a, kappa, V domains shown, phage display; human V, mouse IgG2a/kappa) VH: QVQLVQSGAEVKKPGSSVKVSCKASGGTFSSYYIHWVRQAPGQGLEWMGGIIPIFGYANYAQKFQGRVTITADESTSTAYMELSSLRSEDTAVYYCARDPGSYGSVYYRRSYYFDYWGQGTLVTVSS VL: EIVLTQSPATLSLSPGERATLSCRASQSVSSYLAWYQQKPGQAPRLLIYDASNRATGIPARFSGSGSGTDFTLTISSLEPEDFAVYYCQQRSNWPLTFGQGTKVEIKR | 38.2 | 51900 | 20.6 |
| I23RB270 (antibody, mouse IgG2a, kappa, V domains shown, phage display; human V, mouse IgG2a/kappa) VH: QVQLVQSGAEVKKPGSSVKVSCKASGGTFDSYAISWVRQAPGQGLEWMGGIIPISGYANYAQKFQGRVTITADESTSTAYMELSSLRSEDTAVYYCARDLSGGYLGLRTLYYYYFDYWGQGTLVTVSS VL: EIVLTQSPATLSLSPGERATLSCRASQSVSSYLAWYQQKPGQAPRLLIYDASNRATGIPARFSGSGSGTDFTLTISSLEPEDFAVYYCQQRSNWPLTFGQGTKVEIKR | 7.2 | 243000 | 0.5 |
| I23RB177 (antibody, mouse IgG2a, kappa, V domains shown, immunization; mouse IgG2a/kappa) VH: EVQLQQSGPELLKPGASVKISCKASGYTITDYTMHWVKQSHGKSLEWIGGINPNYGGTSYNEKFKDKATLTVDKSSSTAYMELRSLTSEDSAVFYCVRGNIYFDYWGQGTTLTVSS VL: NTQMTQSPSSMYASLGERVTITCKASQDINSYLSWFQQKPGKSPKALIYRANRLVDGVPSRFSGSGSGQDYSLTISSLEYEDMGIYYCQQYDEFPRTFGAGTKLELKR |  |  | > 50 |
| I23RB94 (antibody, mouse IgG2a, kappa, V domains shown, immunization; mouse IgG2a/kappa) VH: DVQLQESGPELKKPGETVKISCKASGYTFTNYGMNWVRQAPGKSLKWMGWINTNTGEPAYAEEFKGRFAFSLETSASTAYLQINNLKNEDMATYFCARVRQTARATRGYFDVWGTGTTVTVSS VL: DIVMTQSHKFMSTSVGDRVSITCKASQDVNTAVAWYQQKPGQSPKLLIYSAFYRYPGVPDRFTGSGSGTDFTFTINSVQAEDLAVYCCQQHYTSPLTFGDGTRLEIKR | 2.8 | 364000 | 0.1 |
